The record followed here is IntAct's records for PubMed 31515488.

B1: Keratin, type II cytoskeletal 6A (Homo sapiens), P02538 (parent)
chain: MASTSTTIRSHSSSRRGFSANSARLPGVSRSGFSSVSVSRSRGSGGLGGACGGAGFGSRSLYGLGGSKRISIGGGSCAISGGYGSRAGGSYGFGGAGSGFGFGGGAGIGFGLGGGAGLAGGFGGPGFPVCPPGGIQEVTVNQSLLTPLNLQIDPTIQRVRAEEREQIKTLNNKFASFIDKVRFLEQQNKVLETKWTLLQEQGTKTVRQNLEPLFEQYINNLRRQLDSIVGERGRLDSELRGMQDLVEDFKNKYEDEINKRTAAENEFVTLKKDVDAAYMNKVELQAKADTLTDEINFLRALYDAELSQMQTHISDTSVVLSMDNNRNLDLDSIIAEVKAQYEEIAQRSRAEAESWYQTKYEELQVTAGRHGDDLRNTKQEIAEINRMIQRLRSEIDHVKKQCANLQAAIADAEQRGEMALKDAKNKLEGLEDALQKAKQDLARLLKEYQELMNVKLALDVEIATYRKLLEGEECRLNGEGVGQVNISVVQSTVSSGYGGASGVGSGLGLGGGSSYSYGSGLGVGGGFSSSSGRAIGGGLSSVGGGSSTIKYTTTSSSSRKSYKH
B2: Cyclin-H (Homo sapiens), P51946 (parent)
chain: MYHNSSQKRHWTFSSEEQLARLRADANRKFRCKAVANGKVLPNDPVFLEPHEEMTLCKYYEKRLLEFCSVFKPAMPRSVVGTACMYFKRFYLNNSVMEYHPRIIMLTCAFLACKVDEFNVSSPQFVGNLRESPLGQEKALEQILEYELLLIQQLNFHLIVHNPYRPFEGFLIDLKTRYPILENPEILRKTADDFLNRIALTDAYLLYTPSQIALTAILSSASRAGITMESYLSESLMLKENRTCLSQLLDIMKSMRNLVKKYEPPRSEEVAVLKQKLERCHSAELALNVITKKRKGYEDDDYVSKKSKHEEEEWTDDDLVESL
partner: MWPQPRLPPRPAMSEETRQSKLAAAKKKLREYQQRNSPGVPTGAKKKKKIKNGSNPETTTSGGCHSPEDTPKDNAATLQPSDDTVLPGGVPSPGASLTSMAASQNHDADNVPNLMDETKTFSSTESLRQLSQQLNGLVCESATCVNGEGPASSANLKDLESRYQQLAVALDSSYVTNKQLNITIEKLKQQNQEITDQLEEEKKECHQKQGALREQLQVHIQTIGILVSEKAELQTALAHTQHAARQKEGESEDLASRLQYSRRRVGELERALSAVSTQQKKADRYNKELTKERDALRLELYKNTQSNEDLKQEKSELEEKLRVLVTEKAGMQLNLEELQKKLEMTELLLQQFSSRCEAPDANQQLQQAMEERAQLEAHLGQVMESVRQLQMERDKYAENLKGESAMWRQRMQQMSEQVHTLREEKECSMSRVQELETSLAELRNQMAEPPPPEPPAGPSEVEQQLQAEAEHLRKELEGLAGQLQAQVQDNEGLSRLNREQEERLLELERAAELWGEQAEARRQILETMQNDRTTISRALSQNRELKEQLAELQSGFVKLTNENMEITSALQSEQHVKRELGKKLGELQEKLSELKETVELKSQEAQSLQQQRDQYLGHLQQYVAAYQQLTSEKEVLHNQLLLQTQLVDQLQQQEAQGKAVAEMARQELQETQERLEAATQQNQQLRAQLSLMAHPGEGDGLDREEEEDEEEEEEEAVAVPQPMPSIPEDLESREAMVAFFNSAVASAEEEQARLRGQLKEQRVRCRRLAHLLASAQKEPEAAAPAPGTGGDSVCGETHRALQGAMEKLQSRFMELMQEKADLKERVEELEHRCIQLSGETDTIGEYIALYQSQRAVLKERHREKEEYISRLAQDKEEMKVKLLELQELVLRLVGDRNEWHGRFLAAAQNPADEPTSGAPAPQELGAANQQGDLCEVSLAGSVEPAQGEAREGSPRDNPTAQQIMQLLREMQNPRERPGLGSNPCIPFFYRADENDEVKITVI
B3: G protein pathway suppressor 2 (Homo sapiens), Q13227 (parent)
chain: MPALLERPKLSNAMARALHRHIMMERERKRQEEEEVDKMMEQKMKEEQERRKKKEMEERMSLEETKEQILKLEEKLLALQEEKHQLFLQLKKVLHEEEKRRRKEQSDLTTLTSAAYQQSLTVHTGTHLLSMQGSPGGHNRPGTLMAADRAKQMFGPQVLTTRHYVGSAAAFAGTPEHGQFQGSPGGAYGTAQPPPHYGPTQPAYSPSQQLRAPSAFPAVQYLSQPQPQPYAVHGHFQPTQTGFLQPGGALSLQKQMEHANQQTGFSDSSSLRPMHPQALHPAPGLLASPQLPVQMQPAGKSGFAATSQPGPRLPFIQHSQNPRFYHK
partner: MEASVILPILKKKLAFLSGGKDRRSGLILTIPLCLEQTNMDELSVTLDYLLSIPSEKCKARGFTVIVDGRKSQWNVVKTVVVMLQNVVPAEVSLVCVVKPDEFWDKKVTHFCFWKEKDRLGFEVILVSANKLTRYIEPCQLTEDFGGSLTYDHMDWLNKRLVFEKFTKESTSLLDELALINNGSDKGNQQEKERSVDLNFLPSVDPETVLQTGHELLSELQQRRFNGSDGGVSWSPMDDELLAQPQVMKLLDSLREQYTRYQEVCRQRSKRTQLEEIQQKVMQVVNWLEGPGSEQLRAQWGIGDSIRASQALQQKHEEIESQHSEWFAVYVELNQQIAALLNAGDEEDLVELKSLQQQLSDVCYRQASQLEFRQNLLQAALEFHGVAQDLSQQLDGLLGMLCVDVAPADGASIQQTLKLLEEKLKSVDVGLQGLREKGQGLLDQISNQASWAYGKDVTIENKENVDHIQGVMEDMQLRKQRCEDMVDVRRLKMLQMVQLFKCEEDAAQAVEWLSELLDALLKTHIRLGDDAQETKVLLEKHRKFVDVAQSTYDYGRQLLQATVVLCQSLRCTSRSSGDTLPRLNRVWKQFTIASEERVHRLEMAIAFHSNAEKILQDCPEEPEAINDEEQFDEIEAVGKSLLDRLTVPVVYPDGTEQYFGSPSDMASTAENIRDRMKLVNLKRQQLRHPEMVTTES
B4: Mevalonate kinase (Homo sapiens), Q03426 (parent)
chain: MLSEVLLVSAPGKVILHGEHAVVHGKVALAVSLNLRTFLRLQPHSNGKVDLSLPNIGIKRAWDVARLQSLDTSFLEQGDVTTPTSEQVEKLKEVAGLPDDCAVTERLAVLAFLYLYLSICRKQRALPSLDIVVWSELPPGAGLGSSAAYSVCLAAALLTVCEEIPNPLKDGDCVNRWTKEDLELINKWAFQGERMIHGNPSGVDNAVSTWGGALRYHQGKISSLKRSPALQILLTNTKVPRNTRALVAGVRNRLLKFPEIVAPLLTSIDAISLECERVLGEMGEAPAPEQYLVLEELIDMNQHHLNALGVGHASLDQLCQVTRARGLHSKLTGAGGGGCGITLLKPGLEQPEVEATKQALTSCGFDCLETSIGAPGVSIHSATSLDSRVQQALDGL

In the first assay the parent is B1. To be noted: with KRT17, Q04695.
KRT17, Q04695, sequence (Q04695 whole entry): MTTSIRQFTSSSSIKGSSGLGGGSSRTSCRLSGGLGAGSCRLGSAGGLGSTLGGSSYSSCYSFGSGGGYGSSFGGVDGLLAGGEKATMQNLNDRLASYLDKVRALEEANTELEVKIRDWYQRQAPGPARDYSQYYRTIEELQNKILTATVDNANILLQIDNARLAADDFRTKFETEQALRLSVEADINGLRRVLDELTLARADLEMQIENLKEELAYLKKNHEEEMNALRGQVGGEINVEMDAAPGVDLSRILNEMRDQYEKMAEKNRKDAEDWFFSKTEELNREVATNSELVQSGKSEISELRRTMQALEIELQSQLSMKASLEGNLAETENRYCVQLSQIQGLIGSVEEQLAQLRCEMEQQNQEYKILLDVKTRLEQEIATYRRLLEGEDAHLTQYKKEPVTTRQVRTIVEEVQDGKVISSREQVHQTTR
Regarding L210M, the “effect of a mutation on the interaction” value is reported as “with no effect”.

As for R559G, the “effect of a mutation on the interaction” value is reported as “with no effect”.

Take T552S: the “effect of a mutation on the interaction” value is reported as “with no effect”.

Variants of B1 are the subject of another assay. Particulars: with tfp11_human TFIP11, Q9UBB9.
tfp11_human TFIP11, Q9UBB9, sequence (Q9UBB9 whole entry): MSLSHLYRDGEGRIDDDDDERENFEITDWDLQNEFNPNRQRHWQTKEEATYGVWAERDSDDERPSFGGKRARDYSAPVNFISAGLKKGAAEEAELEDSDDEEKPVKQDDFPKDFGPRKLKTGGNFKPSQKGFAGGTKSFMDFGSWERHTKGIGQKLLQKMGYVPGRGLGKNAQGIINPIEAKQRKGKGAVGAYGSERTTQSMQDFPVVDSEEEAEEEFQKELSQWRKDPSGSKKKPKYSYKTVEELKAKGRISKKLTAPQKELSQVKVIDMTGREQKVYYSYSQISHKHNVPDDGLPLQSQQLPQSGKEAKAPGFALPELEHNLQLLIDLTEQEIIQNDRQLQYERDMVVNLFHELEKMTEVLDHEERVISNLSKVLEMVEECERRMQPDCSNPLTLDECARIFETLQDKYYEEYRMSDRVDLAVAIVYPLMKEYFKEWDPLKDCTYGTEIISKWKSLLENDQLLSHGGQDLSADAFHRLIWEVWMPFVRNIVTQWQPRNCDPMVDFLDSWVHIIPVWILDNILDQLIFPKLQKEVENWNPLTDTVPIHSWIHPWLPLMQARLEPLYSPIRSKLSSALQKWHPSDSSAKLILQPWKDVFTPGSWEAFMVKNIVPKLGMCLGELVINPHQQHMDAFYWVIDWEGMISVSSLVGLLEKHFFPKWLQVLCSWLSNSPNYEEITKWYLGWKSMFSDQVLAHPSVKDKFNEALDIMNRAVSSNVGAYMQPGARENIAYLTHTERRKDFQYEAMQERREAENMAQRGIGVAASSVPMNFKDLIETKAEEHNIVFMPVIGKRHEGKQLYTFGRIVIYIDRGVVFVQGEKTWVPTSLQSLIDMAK
As to L210M, the “effect of a mutation on the interaction” value was “with no effect”.

Take R559G: the “effect of a mutation on the interaction” value is “with no effect”.

With T552S, the “effect of a mutation on the interaction” value is “with no effect”.

Variants of B1 are the subject of another assay. Particulars: with KRT15, P19012.
KRT15, P19012, sequence (P19012 whole entry): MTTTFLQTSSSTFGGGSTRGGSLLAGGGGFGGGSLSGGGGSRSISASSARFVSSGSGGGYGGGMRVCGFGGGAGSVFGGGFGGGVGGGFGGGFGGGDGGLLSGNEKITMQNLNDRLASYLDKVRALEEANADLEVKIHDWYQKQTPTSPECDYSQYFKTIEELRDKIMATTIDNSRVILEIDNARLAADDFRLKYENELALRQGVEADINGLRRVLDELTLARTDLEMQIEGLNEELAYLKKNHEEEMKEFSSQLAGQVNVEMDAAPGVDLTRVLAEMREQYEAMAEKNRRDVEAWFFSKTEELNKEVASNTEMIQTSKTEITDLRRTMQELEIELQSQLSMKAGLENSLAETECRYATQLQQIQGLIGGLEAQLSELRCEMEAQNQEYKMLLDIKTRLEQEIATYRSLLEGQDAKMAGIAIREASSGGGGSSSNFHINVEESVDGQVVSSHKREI
For L210M, the “effect of a mutation on the interaction” value is “with no effect”.

Regarding R559G, the “effect of a mutation on the interaction” value is recorded as “with no effect”.

For T552S, the “effect of a mutation on the interaction” value is recorded as “with no effect”.

The variants in another assay derive from B2. To be noted: with goga2_human GOLGA2, Q08379.
For the variant N155T, the “effect of a mutation on the interaction” value is listed as “disrupting interaction strength”.

The variants in a further assay derive from B3. Particulars: with sesd1_human SESTD1, Q86VW0.
With A215T, the “effect of a mutation on the interaction” value is given as “with no effect”.

Another assay covers variants of B4. Particulars: with ews_human EWSR1, Q01844.
ews_human EWSR1, Q01844, sequence (Q01844 whole entry): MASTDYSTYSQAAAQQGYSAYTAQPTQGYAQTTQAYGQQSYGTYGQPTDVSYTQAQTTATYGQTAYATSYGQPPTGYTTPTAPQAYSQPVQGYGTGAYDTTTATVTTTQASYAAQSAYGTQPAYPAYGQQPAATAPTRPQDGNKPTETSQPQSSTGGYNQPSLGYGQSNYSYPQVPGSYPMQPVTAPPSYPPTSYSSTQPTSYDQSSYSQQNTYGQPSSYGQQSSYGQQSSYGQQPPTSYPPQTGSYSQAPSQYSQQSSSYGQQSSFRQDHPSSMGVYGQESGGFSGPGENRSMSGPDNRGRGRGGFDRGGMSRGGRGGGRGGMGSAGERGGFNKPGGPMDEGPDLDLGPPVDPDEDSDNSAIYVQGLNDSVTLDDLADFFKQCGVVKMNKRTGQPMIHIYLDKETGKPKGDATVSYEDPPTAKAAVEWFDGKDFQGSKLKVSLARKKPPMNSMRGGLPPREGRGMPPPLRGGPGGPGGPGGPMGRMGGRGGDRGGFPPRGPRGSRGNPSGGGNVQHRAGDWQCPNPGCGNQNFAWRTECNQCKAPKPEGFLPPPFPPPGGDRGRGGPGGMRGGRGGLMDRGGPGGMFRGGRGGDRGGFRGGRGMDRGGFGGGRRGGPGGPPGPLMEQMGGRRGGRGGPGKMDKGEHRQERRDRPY
In the case of H20Q, the “effect of a mutation on the interaction” value is “with no effect”.
